Measurements: US5789157

System: unidentified red blood cell ghost membrane protein, apparent 105 kDa (target of c56t) (Homo sapiens)
Assay: filter
Conditions: Scatchard on whole RBC ghosts, estimated, 1900 sites per cell; target taken as the 105 kDa protein from crosslinking

“AACTCAGTGGTAGGTAACGGTT [C56T (22-nt truncate of clone 56)]” was tested, and the Kd was 0.042 nM.
